Reference: paper doi:10.1101/2023.08.19.553944
Where two headings read alike, the source gives them in different places.

Tests used:
Assay in all cases: EMSA
PTBP2 (TnT) = PTBP2 (TnT) (UniProt Q9UKA9 1-531)
5xH-PTBP1 [1] = molecular target: T1, 5xH-PTBP1 (UniProt P26599 1-557)
GST-PTBP1 = GST-PTBP1 (UniProt P26599 1-557)
GST-hnRNP A1 = GST-hnRNP A1 (UniProt P09651-2 1-320)
hnRNP A1 (TnT) = hnRNP A1 (TnT) (UniProt P09651-2 1-320)
5xH-PTBP1 [2] = molecular target: T1, 5xH-PTBP1; remark: listed apart in the source
GST-PTBP2 = GST-PTBP2 (UniProt Q9UKA9 1-531)
GST-PTBP2, sequence (Q9UKA9 whole entry): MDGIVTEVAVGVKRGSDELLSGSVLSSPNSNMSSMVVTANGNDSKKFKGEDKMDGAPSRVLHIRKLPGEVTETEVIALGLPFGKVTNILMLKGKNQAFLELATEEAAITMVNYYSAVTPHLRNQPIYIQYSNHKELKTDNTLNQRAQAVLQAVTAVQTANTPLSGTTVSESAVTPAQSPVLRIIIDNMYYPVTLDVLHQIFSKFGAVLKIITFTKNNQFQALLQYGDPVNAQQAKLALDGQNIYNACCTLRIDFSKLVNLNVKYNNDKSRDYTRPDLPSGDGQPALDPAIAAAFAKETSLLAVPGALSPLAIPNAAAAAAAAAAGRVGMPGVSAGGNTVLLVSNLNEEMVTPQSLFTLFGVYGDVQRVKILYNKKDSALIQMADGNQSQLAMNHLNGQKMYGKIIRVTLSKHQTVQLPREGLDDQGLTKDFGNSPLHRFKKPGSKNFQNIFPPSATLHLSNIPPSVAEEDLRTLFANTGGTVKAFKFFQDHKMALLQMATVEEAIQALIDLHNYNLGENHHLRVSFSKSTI

T1 sequence (P26599 whole entry): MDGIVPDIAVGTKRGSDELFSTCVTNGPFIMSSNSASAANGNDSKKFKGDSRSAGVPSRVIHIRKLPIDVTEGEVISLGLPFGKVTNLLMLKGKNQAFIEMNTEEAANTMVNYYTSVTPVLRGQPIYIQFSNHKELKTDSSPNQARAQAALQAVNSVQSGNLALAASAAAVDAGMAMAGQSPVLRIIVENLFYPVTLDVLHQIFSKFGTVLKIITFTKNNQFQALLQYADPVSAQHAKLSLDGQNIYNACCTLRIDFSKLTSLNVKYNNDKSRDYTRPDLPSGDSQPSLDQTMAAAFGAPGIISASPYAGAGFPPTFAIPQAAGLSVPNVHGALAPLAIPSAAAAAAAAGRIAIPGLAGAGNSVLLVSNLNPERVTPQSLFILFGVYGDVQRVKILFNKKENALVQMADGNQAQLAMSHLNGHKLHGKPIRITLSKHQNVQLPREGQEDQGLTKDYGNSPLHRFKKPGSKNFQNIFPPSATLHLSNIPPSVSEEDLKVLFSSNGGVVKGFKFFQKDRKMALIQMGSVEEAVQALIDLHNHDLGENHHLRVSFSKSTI
GST-PTBP1, sequence (P26599 whole entry): as above
PTBP2 (TnT), sequence (Q9UKA9 whole entry): as the sequence (Q9UKA9 whole entry) above

Binder | binding result (PTBP2 (TnT)) | binding result (5xH-PTBP1 [1]) | binding result (GST-PTBP1) | binding result (GST-hnRNP A1) | binding result (hnRNP A1 (TnT)) | binding result (5xH-PTBP1 [2]) | binding result (GST-PTBP2)
U7/SPL (structured_RNA) RNA: CAGUGUUACAGCUCUUUUAGAAUUUUUGGAGUAGGCUUUCUGGCUUUUUACCGGAAAGCCCCUCUUAUG | no binding | binds | binds |  |  |  | 
U7/PU (structured_RNA) RNA: CAGUGUUACAGGAGAUUUAGAAUUUGUCUAGUAGGCUUUCUGGCUUUUUACCGGAAAGCCCCUCUUAUG |  | binds | binds |  |  |  | 
U7/2xGA (structured_RNA) RNA: CAGUGUUACAGCUCUUUUGAAAUUUGUCUGAUAGGCUUUCUGGCUUUUUACCGGAAAGCCCCUCUUAUG |  |  |  | no binding | no binding | binds | 
U7/2xMut (structured_RNA) RNA: CAGUGUUACAGGAGAUUUAGAAUUUUUGGAGUAGGCUUUCUGGCUUUUUACCGGAAAGCCCCUCUUAUG |  |  |  |  | binds |  | no binding
